Assay results from patent publication US20130309233A1 (SORRENTO THERAPEUTICS, published 2013).

biological target: T1, EGFR expressed on the surface of cells (A431, A549, MCF7 and other EGFR-expressing cell lines) (human, UniProt P00533 25-1210); assay: cell-based or functional assay

Row | Binder | decrease in EGF stimulated receptor phosphorylation assay in EGFR positive cells (A431)
1 | A5 (antibody, IgG1, V domains shown) VH: EVQLVQSGAEVKKPGASVKVSCKASGGTFSSYAISWVRQAPGQGLEWMGGIIPILGTADYAQKFQGRVTITADESTSTAYMELSSLRSEDTAVYYCARDEIPLEYCTSTSCYHAFDIWGQGTMVTVSS VL: not shown | ~10%
2 | B5 (antibody, IgG1, V domains shown) VH: QMQLVQSWAEVKKPGASVKVSCKASAYTFTNYYIHWVRQAPGQGLEWMGIINPSSGATTYAQRLQGRVIMTRDTSTSTVNMELSSLRSEDTAVYYCARSTLWFSEFDYWGQGTLVTVSS VL: QSVLTQPASVSGSPGQSITISCTGTTSDVGGFNYVSWYQQHPGKVPKLIIFDVSNRPSSVSDRFSGSKSVNTASLTISGLQAEDEADYYCSSYTDSGSYIFGTGTKVTVL | ~10%

biological target: T1, EGFR expressed on the surface of cells …; assay: cell-based or functional assay; remark: another data set of the same source

Row | Binder | IC50 (M), inhibition of EGF-stimulated EGFR auto-phosphorylation in A549 cells
3 | D2GA2 (antibody, V domains shown) VH: EVQLVESGGGVVQPGRSLRLSCAASGFIFHHYAMHWVRQAPGKGLEWVAHISPDGSSKFYADSVKGRFTVSRDNSKNTLYLQMNSLRAEDTAVYYCARFTEVLYYGADIWGQGTLVTVSS VL: QSVLTQPPSVSEAPRQRVSISCSGSSSNIGNNAVNWYQQLPGKAPKLLIYFDDLLPSGVSDRFSGSKSGTSASLAISGLQSEDEADYYCAAWDDSLKGYVFGTGTKVTVL | 1.8e-10 M
4 | D2GA4 (antibody, V domains shown) VH: EVQLVESGGGVVQPGRSLRLSCAASGFIFHHYAMHWVRQAPGKGLEWVAHISSDGSSKFYADSVKGRFTVSRDNSKNTLYLQMNSLRAEDTAVYYCARFTEVLYYGADLWGQGTLVTVSS VL: QSVLTQPPSVSEAPRQRVSISCSGSSSNIGDNAVNWYQQLPGKAPKLLIYYDDLHPSGVSDRFSGSKSGTSASLAISGLQSEDEADYYCAAWDDSLKGYVFGTGTKVTVL | 1.7e-10 M
5 | D2GA5 (antibody, V domains shown) VH: EVQLVESGGGVVQPGRSLRLSCAASGFIFHHYAMHWVRQAPGKGLEWVAHISIDGSSKFYADSVKGRFTVSRDNSKNTLYLQMNSLRAEDTAVYYCARFTEVLYYGADLWGQGTLVTVSS VL: QSVLTQPPSVSEAPRQRVSISCSGSSSNIGNNAVNWYQQLPGKAPKLLIYYDDLLPSGVSDRFSGSKSGTSASLAISGLQSEDEADYYCAAWDDSLKGYVFGTGTKVTVL | 2.3e-10 M
6 | D2GA6 (antibody, V domains shown) VH: EVQLVESGGGVVQPGRSLRLSCAASGFIFHHYAMHWVRQAPGKGLEWVAHISPDGSSKFYADSVKGRFTVSRDNSKNTLYLQMNSLRAEDTAVYYCARFTEVLYYGADIWGQGTLVTVSS VL: QSVLTQPPSVSEAPRQRVSISCSGSSSNIGNNAVNWYQQLPGKAPKLLIYFDDLLPQGVSDRFSGSKSGTSASLAISGLQSEDEADYYCAAWDDSLKGYVFGTGTKVTVL | 2.2e-10 M
7 | D2 GB8 (antibody, V domains shown) VH: EVQLVESGGGVVQPGRSLRLSCAASGFIFHHYAMHWVRQAPGKGLEWVAHISPDGSYKFYADSVKGRFTVSRDNSKNTLYLQMNSLRAEDTAVYYCARFTEVLYYGADIWGQGTLVTVSS VL: QSVLTQPPSVSEAPRQRVSISCSGSSSNIGNNAVNWYQQLPGKAPKLLIYYDDLLPSGVSNRFSGSKSGTSASLAISGLQSEDEADYYCAAWDDSLKGYVFGTGTKVTVL | 8.6e-10 M
8 | D2GC1 (antibody, V domains shown) VH: EVQLVESGGGVVQPGRSLRLSCAASGFIFHHYAMHWVRQAPGKGLEWVAHISPDGSSKFYADSVKGRFTVSRDNSKNTLYLQMNSLRAEDTAVYYCARFTEVLYYGADLWGQGTLVTVSS VL: QSVLTQPPSVSEAPRQRVSISCSGSSSNIGNNAVNWYQQLPGKAPKLLIYYDDLLPSGVSDRFSGSKSGTSASLAISGLQSEDEADYYCAAWDDSLKGYVFGTGTKVTVL | 2e-10 M
9 | D2GC4 (antibody, V domains shown) VH: EVQLVESGGGVVQPGRSLRLSCAASGFIFHHYSMHWVRQAPGKGLEWVAHISSDGSSKFYADSVKGRFTVSRDNSKNTLYLQMNSLRAEDTAVYYCARFTEVLYYGADLWGQGTLVTVSS VL: QSVLTQPPSVSEAPRQRVSISCSGSSSNIGNNAVNWYQQLPGKAPKLLIYYDDLLPSGVSDRFSGSKSGTSASLAISGLQSEDEADYYCAAWDDSLKGYVFGTGTKVTV | 2.8e-10 M
10 | D2GG1 (antibody, V domains shown) VH: EVQLVESGGGVVQPGRSLRLSCAASGFTFSHYAMHWVRQAPGKGLEWVAHISLDGSSKFYADSVKGRFTVSRDNSKNTLYLQMNSLRAEDTAVYYCARFTEVLYYGADLWGQGTLVTVSS VL: QSVLTQPPSVSEAPRQRVSISCSGSSSNIGNNAVNWYQQLPGKAPKLLIYYDDLLPSGVSDRFSGSKSGTSASLAISGLQSEDEADYYCAAWDDSLKGYVFGTGTKVTVL | 8.9e-10 M

biological target: T1, EGFR expressed on the surface of cells …; assay: cell-based or functional assay; remark: another data set of the same source

Row | Binder | IC50 (M), inhibition of EGF-stimulated EGFR auto-phosphorylation in A549 cells
11 | A6-A1 (antibody, V domains shown) VH: QVQLVQSGAEVKKPGSSVKVSCKASGGTFRNHAWSWVRQAPGQGLEWMGWISAYNGYTHYASKLQGRVTMTTDTSTSTAYMELRSLRSDDTAVYYCARVSAEYAEDWSLHYYYMDVWGQGTLVTVSS VL: QSVLTQPPSVSAAPGQEVTISCSGSNSNIGNNYVSWYQQLPGTAPKLLIYDNNERPSGIPDRFSGSKSGTSATLGITGLQTGDEADYYCSTWDSSLSAVVFGGGTKLTVL | 5.1e-10 M
12 | A6-A3 (antibody, V domains shown) VH: QVQLVQSGAEVKKPGSSVKVSCKASGGTFRNHAWSWVRQAPGQGLEWMGWISAYNGYTTYASKLQGRVTMTTDTSTSTAYMELRSLRSDDTAVYYCARVSASYNEDWSLHYYYGMDVWGQGTLVTVSS VL: QSVLTQPPSVSAAPGQEVTISCSGSNSNIEPNYVSWYQQLPGTAPKLLIYSTAERPSGIPDRFSGSKSGTSATLGITGLQTGDEADYYCSTWDSSLSAVVFGGGTKLTVL | 1.1e-09 M
13 | A6-A4 (antibody, V domains shown) VH: QVQLVQSGAEVKKPGSSVKVSCKASGGTFRNHAYSWVRQAPGQGLEWMGWISAYNGYTTYASKLQGRVTMTTDTSTSTAYMELRSLRSDDTAVYYCARVSASYNSDWSLHYYYGMDVWGQGTLVTVSS VL: QSVLTQPPSVSAAPGQEVTISCSGSNSNIENNYVSWYQQLPGTAPKLLIYSNNERPSGIPDRFSGSKSGTSATLGITGLQTGDEADYYCGTFDSSLSAVVFGGGTKLTVL | 1.05e-09 M
14 | A6-A5 (antibody, V domains shown) VH: QVQLVQSGAEVKKPGSSVKVSCKASGGTFRNHAYSWVRQAPGQGLEWMGWISAYNGYTHYASKLQGRVTMTTDTSTSTAYMELRSLRSDDTAVYYCARVSASYASDWSLHYYYGMDVWGQGTLVTVSS VL: QSVLTQPPSVSAAPGQEVTISCSGSNSNIGNNYVSWYQQLPGTAPKLLIYDTAERPSGIPDRFSGSKSGTSATLGITGLQTGDEADYYCSTWDSSLSAVLFGGGTKLTVL | 1.1e-09 M
15 | A6-A7 (antibody, V domains shown) VH: QVQLVQSGAEVKKPGSSVKVSCKASGGTFRNHAYSWVRQAPGQGLEWMGWISAYNGYTHYAEKLQGRVTMTTDTSTSTAYMELRSLRSDDTAVYYCARVSAEYNSDWSVHYYYGMDVWGQGTLVTVSS VL: QSVLTQPPSVSAAPGQEVTISCSGSNSNIGPNYVSWYQQLPGTAPKLLIYDNNERPSGIPDRFSGSKSGTSATLGITGLQTGDEADYYCSTFDSSLSAAVFGGGTKLTVL | 5.6e-10 M
16 | A6-A8 (antibody, V domains shown) VH: QVQLVQSGAEVKKPGSSVKVSCKASGGTFRNHAYSWVRQAPGQGLEWMGWISAYNGYTTYAEKLQGRVTMTTDTSTSTAYMELRSLRSDDTAVYYCARVSAEYAEDWSLHYYYGMDVWGQGTLVTVSS VL: QSVLTQPPSVSAAPGQEVTISCSGSNSNIPNNYVSWYQQLPGTAPKLLIYSNSERPSGIPDRFSGSKSGTSATLGITGLQTGDEADYYCSTWDSSLSAALFGGGTKLTVL | 6e-10 M

biological target: T1, EGFR expressed on the surface of cells …; assay: binding of purified IgG to EGFR-expressing cell lines

Row | Binder | binding result
17 | B1 (antibody, IgG1, V domains shown) VH: QVQLVQSGGGVVQPGRSLRLSCAASGFIFNHYAMHWVRQAPGKGLEWVAHISSDGSYKFYADSVKGRFTVSRDNSDNTVYLQMNSLGPEDTAVYHCARFTEVLYYGADYWGQGTLVTVSS VL: not shown | binds
18 | D6 (antibody, IgG1, V domains shown, also called EGFR-D6) VH: EVQLVQSGAEVKKPGSAVKVSCKASGGTFSSYAISWVRQAPGQGLEWMGGIIPILGTADYAQKFQGRVTITADESTSTAYMELSSLRSEDTAVYYCARDEIPLEYCTSTSCYHAFDIWGRGTMVTVSS VL: AIQLTQSPSTLSASVGDRVTITCRASQSISSWLAWYQQKPGKAPKLLIYAASSLQSGVPSRFSGSGSGTDFTLTISSLQPEDFATYYCQQSYSTPLTFGGGTKVEIK | binds
19 | B4 (antibody, IgG1, V domains shown, also called EGFR-B4) VH: QVQLVQSGAEVKKPGSAVKVSCKASGGTFSSYAISWVRQAPGQGLEWMGGIIPILGTADYAQKFQGRVTITADESTSTAYMELSSLRSEDTAVYYCARDEIPLEYCTSTSCYHAFDIWGQGTMVTVSS VL: NIQMTQSPPSLSAFVGDRVTITCQASQAINNYLNWYQQKPGKAPKLLIYDASNLETGVPSRFSGSGSGTDFTFTISSLQPEDNATYYCQQYDKLPLTFGGGTKVEIK | binds
